Patent publication US20170037124A1 (Regeneron, published 2017)

T1: peptide from the N-terminal coiled-coil region of human ANGPTL3 (hANGPTL3 peptide, SEQ ID NO: 338) (human)
T1 construct: also called hANGPTL3 shift peptide
T1 peptide: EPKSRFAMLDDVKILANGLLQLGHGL

T2: peptide from the N-terminal coiled-coil region of human ANGPTL4 (hANGPTL4 peptide, SEQ ID NO: 339) (human)
T2 peptide: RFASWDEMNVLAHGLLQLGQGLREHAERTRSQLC

T3: human ANGPTL8 peptide (hANGPTL8 peptide, SEQ ID NO: 337) (human)
T3 construct: also called N-terminal region ANGPTL8 peptide
T3 peptide: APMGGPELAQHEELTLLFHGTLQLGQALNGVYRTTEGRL

T4: human ANGPTL8 expressed with C-terminal mouse IgG2a Fc tag (hANGPTL8-mFc; SEQ ID NO: 340) (human)
T4 construct: also called Angiopoietin-like protein 8
T4 chain: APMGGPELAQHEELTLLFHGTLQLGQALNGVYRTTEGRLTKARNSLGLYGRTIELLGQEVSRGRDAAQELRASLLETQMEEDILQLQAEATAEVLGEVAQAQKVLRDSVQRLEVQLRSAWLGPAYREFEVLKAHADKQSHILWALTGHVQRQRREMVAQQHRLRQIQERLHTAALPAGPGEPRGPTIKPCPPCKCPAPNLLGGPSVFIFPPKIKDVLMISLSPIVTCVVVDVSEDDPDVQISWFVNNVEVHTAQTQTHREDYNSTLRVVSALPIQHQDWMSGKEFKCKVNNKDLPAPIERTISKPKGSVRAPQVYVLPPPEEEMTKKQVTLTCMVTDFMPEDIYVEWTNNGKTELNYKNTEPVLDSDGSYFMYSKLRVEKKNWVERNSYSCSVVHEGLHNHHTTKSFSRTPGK

T5: monkey ANGPTL8 expressed with C-terminal mouse IgG2a Fc tag (MfANGPTL8-mFc; SEQ ID NO: 341) (cynomolgus monkey)
T5 construct: also called cynomolgus monkey ANGPTL8
T5 chain: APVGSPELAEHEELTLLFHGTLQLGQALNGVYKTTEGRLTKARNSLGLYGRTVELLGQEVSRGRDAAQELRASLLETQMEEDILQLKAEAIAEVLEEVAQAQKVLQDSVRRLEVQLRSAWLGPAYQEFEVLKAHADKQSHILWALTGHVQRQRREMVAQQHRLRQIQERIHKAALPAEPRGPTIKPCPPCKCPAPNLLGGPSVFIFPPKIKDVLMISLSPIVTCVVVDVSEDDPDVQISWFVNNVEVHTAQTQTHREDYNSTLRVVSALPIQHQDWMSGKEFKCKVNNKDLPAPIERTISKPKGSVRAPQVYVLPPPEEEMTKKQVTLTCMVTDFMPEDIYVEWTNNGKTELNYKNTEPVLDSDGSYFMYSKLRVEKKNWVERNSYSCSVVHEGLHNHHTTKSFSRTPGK

B1: H4H15355P2 (antibody, human IgG4, V domains shown)
VH: QVQLVESGGGVVQPGRSLRLSCAASGFTFTNYAMHWVRQAPGKGLEWVAVISYDGSHTYFADSVKGRFTMSRDNSKNTISLQMNSLRPEDTAVYFCAGGGATTWFYFYGLDVWGQGTTVTVSS
VL: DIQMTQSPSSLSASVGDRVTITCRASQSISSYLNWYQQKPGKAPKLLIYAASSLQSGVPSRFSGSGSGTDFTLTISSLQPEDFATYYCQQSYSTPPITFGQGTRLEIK
notes: H4H prefix: human IgG4 Fc
B2: H4H15314P2 (antibody, human IgG4, V domains shown)
VH: QVQLVQSGAEVKKPGASVKVSCKASGYTFTSYDINWVRQATGQGLEWMGWMNPNGDNTGYAQKFQGRVTMTGDTSISTAYMELSSLRSEDTAVYYCAREGIWGFDPWGQGTLVTVSS
VL: DIQMTQSPSSLSASVGDRVTITCRASQDIRNDLGWYQQKPGKAPKRLIYAASSLQSGVPSRFSGSGSGTEFTLTISSLQPEDFATFYCLQHNTFPRTFGQGTKVEIK
notes: H4H prefix: human IgG4 Fc
B3: H4H15357P2 (antibody, human IgG4, V domains shown)
VH: EVQLVESGGGLVKPGGSLRLSCTASGFTFGNAWMSWVRQAPGKGLEWVGLIKGKTDGGTTNYAAPVKGRFTISRDDSKNTLYLHLNSLRTEDTALYYCTTDQVELRQYYYYGLDVWGQGTTVTVSS
VL: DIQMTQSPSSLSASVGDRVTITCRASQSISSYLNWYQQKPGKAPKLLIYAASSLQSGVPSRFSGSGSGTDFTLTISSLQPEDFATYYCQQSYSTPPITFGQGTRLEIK
notes: H4H prefix: human IgG4 Fc
B4: H4H15335P (antibody, human IgG4, V domains shown)
VH: QVQLVESGGGVVQPGRSLRLSCAASGFTFNNYGIHWVRQAPGKGLEWVAVISYDESNKYYADSVKGRFTISRDNSKNTLYLQMNSLRAEDTAVYYCAKDIRIAARRHYYYYGMDVWGQGTTVTVSS
VL: DIQMTQSPSSVSASVGDRVTITCRASQGISRWLAWYQQKPGKAPKLLIYAASSLESGVPARFSGSGSGTDFTLTISSLQPEDFATYYCQQANSFPITFGPGTKVDIK
notes: H4H prefix: human IgG4 Fc
B5: H4H15354P2 (antibody, human IgG4, V domains shown)
VH: QVQLVESGGGVVQPGRSLRLSCTASGFTFNNYGIHWVRQAPGKGLEWVAVISYDGSNKFYAESVRGRFTISRDNSRNTLFLQMISLRGEDSAVYYCAKDRPYYDILTAHYPSDYYFYAMDVWGHGTTVTVSS
VL: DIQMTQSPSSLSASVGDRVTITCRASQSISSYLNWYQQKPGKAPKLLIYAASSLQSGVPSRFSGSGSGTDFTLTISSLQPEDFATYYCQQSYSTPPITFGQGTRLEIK
notes: H4H prefix: human IgG4 Fc
B6: H4H15361P2 (antibody, human IgG4, V domains shown)
VH: EVQLVESGGGLVQPGRSLRLSCTASGFSFGDNAMGWVRQAPGKGLEWVSFIRRKASGGTTEYAASVKGRFTISRDDSKSIAYLQMNSLKTEDTGVYYCTRGGAVYGYWGQGTLVTVSS
VL: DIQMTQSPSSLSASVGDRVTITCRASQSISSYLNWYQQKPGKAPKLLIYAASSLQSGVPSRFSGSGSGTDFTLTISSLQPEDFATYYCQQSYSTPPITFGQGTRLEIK
notes: H4H prefix: human IgG4 Fc
B7: H4H15363P2 (antibody, human IgG4, V domains shown)
VH: EVQLVESGGGLVQPGGSLRLSCAASGFTFSNYAMSWVRQVPGKGLEWVSTISGSGGSTYYADSVKGRFTISRDNSKNSLYLQMNSLRAEDTAVYYCAKLVRGVIGWFDPWGQGTLVTVSS
VL: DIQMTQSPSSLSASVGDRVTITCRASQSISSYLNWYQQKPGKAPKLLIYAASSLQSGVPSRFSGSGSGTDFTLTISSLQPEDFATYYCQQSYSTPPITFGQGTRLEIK
notes: H4H prefix: human IgG4 Fc
B8: H4H15347P (antibody, human IgG4, V domains shown)
VH: EVQLVESGGGLVQPGGSLRLSCAASGFTFRNYAMNWARQAPGKGLEWVSGITGSGGATYYADSVKGRFTISRENSKNTLFLQMDTLRAEDTAVYYCAKDRRYFPTSGGPQWGQGTLVTVSS
VL: DIVMTQSPLSLPVTPGEPASISCRSSRSLLHSSGYNYLDWYLQKPGQSPQLLLYLGSNRASGVPDRFSGSGSGTYFTLKISRVDAEDVGVYYCMQALQTPWTFGQGTKVEIK
notes: H4H prefix: human IgG4 Fc

These binders were tested against T6, anti-mFc (AMC) Octet biosensor, blank (assay: BLI Octet, blank AMC sensor, 100 nM mAb, 25C).
T6 construct: Sensor without captured protein, used as blank; also called Blank AMC Sensor
Method: (§1) Binding of ANGPTL8 antibodies to human and monkey ANGPTL8 proteins was investigated using Bio-layer Interferometry with an Octet HTX biosensor platform (ForteBio, A Division of Pall Life Sciences). All experiments were performed at 25° C. in 10 mM HEPES pH 7.4, 150 mM NaCl, 0.05% v/v Surfactant Tween-20, and 1 mg/ml BSA with the reaction multiwell plate agitated at 1000 rpm. Approximately 1.6 nm of human ANGPTL8 produced with a C-terminal mouse IgG2a Fc tag (hANGPTL8-mFc; SEQ ID NO: 340) or cynomolgus monkey ANGPTL8 produced with a C-terminal mouse IgG2a Fc tag (MfANGPTL8-mFc; SEQ ID NO: 341) was captured onto anti-mFc (AMC) Octet biosensors by submerging the sensors into wells containing 10 μg/mL of each protein for 4 minutes. Under the same conditions a negative control protein with the same mFc tag (hLDLR-mFc) was also coupled to the AMC sensor. All four sensors, […] and one blank, were then submerged into wells containing 100 nM of different ANGPTL8 monoclonal antibodies or an isotype control for 4 minutes.

mAb Binding Response (nm) | Binder
0.03 | B1
0 | B2
0.02 | B3
0.01 | B4
0.02 | B5
0.02 | B6
0.02 | B7
0.03 | B8

Target: T1, peptide from the N-terminal coiled-coil …
Experiment: SPR, captured mAb, 500 nM peptide, 25C
Method: (§2) The assay utilized a format where ANGPTL8 antibodies were captured on the sensor surface and peptides were injected over the antibody surface. Peptides from the N-terminal coiled-coil region of human ANGPTL3 (hANGPTL3 peptide, SEQ ID NO: 338) and human ANGPTL4 (hANGPTL4 peptide, SEQ ID NO: 339) were also included as controls. Also included was a control antibody (H4H268P from US2011/0159015A1) that binds to the ANGPTL4 peptide and a negative isotype control antibody. All binding studies were performed in 10 mM HEPES pH 7.4, 150 mM NaCl, 3 mM EDTA, and 0.05% v/v Surfactant Tween-20 (HBS-ET running buffer) at 25° C. The HCA sensor surface was derivatized via amine coupling to a monoclonal mouse anti-human Fc antibody (GE, # BR-1008-39), and to this surface was captured approximately 1000 RU of each ANGPTL8 antibody or control antibody. Peptide stock solutions were diluted in HBS-ET running buffer to 500 nM and injected over the antibody-captured surfaces for 4 minutes at a flow rate of 30 μL/minute followed by the dissociation of bound peptide in HBS-ET running buffer for 10 minutes.
(§3) Dissociative half-lives (t½) were calculated from kd as: […]

500 nM hANGPTL3 peptide Bound (RU) | Binder | binding result
0 | B1 | no binding (tested: <9 RU at 500 nM peptide)
0 | B2 | no binding (tested: <9 RU at 500 nM peptide)
0 | B3 | no binding (tested: <9 RU at 500 nM peptide)
-1 | B4 | 
0 | B5 | no binding (tested: <9 RU at 500 nM peptide)
0 | B6 | no binding (tested: <9 RU at 500 nM peptide)
0 | B7 | no binding (tested: <9 RU at 500 nM peptide)
-1 | B8 | 

Target: T2, peptide from the N-terminal coiled-coil …
Experiment: SPR, captured mAb, 500 nM peptide, 25C
Method: as §2, §3

500 nM hAngPTL4 peptide Bound (RU) | Binder | binding result
0 | B1 | no binding (tested: <9 RU at 500 nM peptide)
1 | B2 | no binding (tested: <9 RU at 500 nM peptide)
0 | B3 | no binding (tested: <9 RU at 500 nM peptide)
1 | B4 | no binding (tested: <9 RU at 500 nM peptide)
0 | B5 | no binding (tested: <9 RU at 500 nM peptide)
0 | B6 | no binding (tested: <9 RU at 500 nM peptide)
0 | B7 | no binding (tested: <9 RU at 500 nM peptide)
0 | B8 | no binding (tested: <9 RU at 500 nM peptide)

Target: T3, human ANGPTL8 peptide (hANGPTL8 …)
Experiment: SPR, captured mAb, 500 nM peptide, 25C
Method: as §2, §3

500 nM hANGPTL8 peptide Bound (RU) | Binder | binding result
0 | B1 | no binding (tested: <9 RU at 500 nM peptide)
0 | B2 | no binding (tested: <9 RU at 500 nM peptide)
0 | B3 | no binding (tested: <9 RU at 500 nM peptide)
0 | B4 | no binding (tested: <9 RU at 500 nM peptide)
0 | B5 | no binding (tested: <9 RU at 500 nM peptide)
4 | B6 | no binding (tested: <9 RU at 500 nM peptide)
0 | B7 | no binding (tested: <9 RU at 500 nM peptide)
0 | B8 | no binding (tested: <9 RU at 500 nM peptide)

Target: T4, human ANGPTL8 expressed with C-terminal …
Experiment: BLI Octet, captured antigen, 100 nM mAb, 25C
Method: as §1

mAb Binding Response (nm) | Binder
0.15 | B1
0.04 | B2
0.13 | B3
0.06 | B4
0.05 | B5
0.2 | B6
0.25 | B7
0.25 | B8

Target: T5, monkey ANGPTL8 expressed with …
Experiment: BLI Octet, captured antigen, 100 nM mAb, 25C
Method: as §1

mAb Binding Response (nm) | Binder
0.13 | B1
0.01 | B2
0.08 | B3
0.04 | B4
0.03 | B5
0.21 | B6
0.26 | B7
0.29 | B8
